Data taken from the supplement of paper PMC6757056.
± gives the standard deviation of the averaged measurements.

B1: library; a variant is named by its letters at N, in order (parent)
chain: GCUGUCACCGGUGCUUGGUACGUUAUAUUCAGCCGGUCUGAUGAGUCUNNNNNNAGACGAAACAGC

Experiments:
[1] = variants of: B1; assay: FACS-Seq fitted mean relative fluorescence mCherry/BFP without ligand (log10 relative fluorescence); HEK293T overexpressing SLC46A1; higher = higher reporter protein expression; conditions: without (6R,S)-folinic acid; ligand present: no
Method in brief: (§1)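 An mCherry reporter containing the ribozyme switch and an EF1α-BFP marker were introduced by lentivirus into HEK293T libraries. Cells were enriched, incubated 48 h with or without ligand, sorted into 6 bins by mCherry/BFP, and bin genomic DNA was PCR-amplified, barcoded and sequenced on MiSeq. Fluorescence represents the normalized fitted normal mean of the bin counts. Fitting was done on log10(mCherry/BFP), scaling to five spiked-in control ribozymes.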

[2] = variants of: B1; assay: normalized RNA/DNA level without ligand (relative to sTRSVctl = 100) (log10 (% of sTRSVctl)); HEK293T overexpressing SLC46A1; higher = less ribozyme self-cleavage, higher mRNA level; conditions: without (6R,S)-folinic acid; ligand present: no
Method in brief: (§2)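 For each 6-well well, 4 µg of library plasmid encoding mCherry-linked ribozyme switches, or eGFP-linked ones in some ligand experiments, was transfected into HEK293T. Any ligand was added 1 h before transfection, and RNA was extracted with EDTA 72 h after it, then reverse-transcribed, amplified, barcoded and sequenced. RNA level was obtained by dividing RNA reads by DNA reads, normalizing to a spiked-in non-cleaving sequence or to the top sequences, then scaling and log-transforming. The top set was 25 sequences, scaling was ×100 with log10, and ≥100 DNA reads were required.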

[3] = variants of: B1; assay: FACS-Seq fitted mean relative fluorescence mCherry/BFP with ligand (log10 relative fluorescence); HEK293T overexpressing SLC46A1; ligand concentration (+) FACS-Seq: 6 mM; higher = higher reporter protein expression; conditions: with (6R,S)-folinic acid; ligand present: yes
Method in brief: as §1

[4] = variants of: B1; assay: normalized RNA/DNA level with ligand (relative to sTRSVctl = 100) (log10 (% of sTRSVctl)); HEK293T overexpressing SLC46A1; ligand concentration (+) RNA-Seq: 6 mM; higher = less ribozyme self-cleavage, higher mRNA level; conditions: with (6R,S)-folinic acid; ligand present: yes
Method in brief: as §2

| Variant | FACS-Seq fitted mean (log10) [1] | normalized RNA/DNA level without ligand (log10) [2] | FACS-Seq fitted mean (log10) [3] | normalized RNA/DNA level with ligand (log10) [4] |
| --- | --- | --- | --- | --- |
| UGCUUG | 0.46 ± 0.098 | 1.76 ± 0.018 | 0.655 ± 0.047 | 1.96 ± 0.034 |
| GGCAUA | 0.173 ± 0.12 | 2.032 ± 0.012 | 0.286 ± 0.1 | 2.01 ± 0.027 |
| CGCAUA | 0.387 ± 0.012 | 1.98 ± 0.0046 | 0.156 ± 0.073 | 2 ± 0.059 |
| CGCAUU | 0.241 ± 0.21 | 2.015 ± 0.0023 | 0.576 ± 0.31 | 1.99 ± 0.039 |
| GGCGAC | 0.216 ± 0.01 | 1.998 ± 0.003 | 0.128 ± 0.013 | 1.989 ± 0.0031 |
| GGCGAU | 0.444 ± 0.0094 | 2.07 ± 0.027 | 0.55 ± 0.15 | 2.037 ± 0.015 |
| UGCGCU | 0.293 ± 0.033 | 2.043 ± 0.0054 | 0.428 ± 0.044 | 2.04 ± 0.03 |
| GGGUCG | 0.531 ± 0.011 | 2.082 ± 0.0039 | 0.432 ± 0.17 | 2.06 ± 0.05 |
| AGCAGA | 0.0194 ± 0.039 | 1.98 ± 0.0025 | -0.229 ± 0.27 | 2.02 ± 0.029 |
| AGCGGU | 0.638 ± 0.18 | 1.952 ± 0.013 | 0.522 ± 0.022 | 2 ± 0.043 |
| UGGGCC | 0.229 ± 0.0089 | 2.048 ± 0.012 | 0.157 ± 0.022 | 2.03 ± 0.0098 |
| UGGGCG | 0.142 ± 0.034 | 1.787 ± 0.014 | 0.637 ± 0.097 | 2.009 ± 0.0047 |
| AGAUGA | 0.308 ± 0.011 | 1.9723 ± 0.0012 | 0.112 ± 0.046 | 2.02 ± 0.038 |
| AGAUGG | 0.589 ± 0.0066 | 1.91 ± 0.0092 | 0.62 ± 0.25 | 2.02 ± 0.028 |
| UGCUAG | 0.312 ± 0.12 | 1.76 ± 0.028 | 0.441 ± 0.057 | 1.972 ± 0.014 |
| UGCUAA | 0.427 ± 0.062 | 1.97 ± 0.026 | 0.537 ± 0.11 | 2.018 ± 0.016 |
| AGCUUG | 0.529 ± 0.0056 | 1.964 ± 0.002 | 0.349 ± 0.32 | 2.03 ± 0.036 |
| GGGGCC | -0.232 ± 0.1 | 2.05 ± 0.023 | -0.6 ± 0.34 | 2.05 ± 0.015 |
| CGGAUG | 0.00208 ± 0.054 | 2 ± 0.024 | -0.0609 ± 0.15 | 2.02 ± 0.043 |
| CGGAUA | 0.0197 ± 0.04 | 1.9689 ± 0.0014 | -0.118 ± 0.034 | 1.98 ± 0.061 |
| UGCAGA | -0.262 ± 0.068 | 1.899 ± 0.008 | -0.0873 ± 0.14 | 1.995 ± 0.0057 |
| UGCAGG | -0.138 ± 0.052 | 1.68 ± 0.029 | -0.00907 ± 0.1 | 1.909 ± 0.017 |
| CGCCAG | 0.509 ± 0.022 | 1.998 ± 0.013 | 0.216 ± 0.15 | 1.998 ± 0.016 |
| GGUAAG | 0.539 ± 0.082 | 1.919 ± 0.0032 | 0.424 ± 0.051 | 2 ± 0.036 |

| Variant | FACS-Seq fitted mean (log10) [1] | normalized RNA/DNA level without ligand (log10) [2] | FACS-Seq fitted mean (log10) [3] | normalized RNA/DNA level with ligand (log10) [4] |
| --- | --- | --- | --- | --- |
| GGUAAU | 0.342 ± 0.044 | 1.992 ± 0.015 | 0.504 ± 0.12 | 2.03 ± 0.043 |
| GGUAAA | 0.462 ± 0.11 | 1.979 ± 0.014 | 0.474 ± 0.38 | 2 ± 0.03 |
| UGCUCG | 0.493 ± 0.023 | 1.84 ± 0.06 | 0.49 ± 0.049 | 1.96 ± 0.072 |
| UGCUCU | 0.473 ± 0.12 | 2.056 ± 0.014 | 0.2 ± 0.019 | 2.06 ± 0.029 |
| GGUACA | -0.547 ± 0.083 | 2.066 ± 0.0024 | -0.647 ± 0.18 | 2.07 ± 0.036 |
| UGCGAC | 0.375 ± 0.053 | 1.979 ± 0.018 | 0.26 ± 0.29 | 2.02 ± 0.034 |
| UGCGAG | 0.31 ± 0.21 | 1.71 ± 0.027 | -0.231 ± 0.053 | 1.96 ± 0.058 |
| UGCGAU | 0.213 ± 0.026 | 1.85 ± 0.019 | -0.0289 ± 0.033 | 1.98 ± 0.029 |
| UGAUUG | 0.168 ± 0.056 | 1.768 ± 0.0099 | 0.541 ± 0.042 | 1.96 ± 0.025 |
| UGAUUA | -0.918 ± 0.18 | 1.951 ± 0.0029 | -0.48 ± 0.39 | 2.01 ± 0.037 |
| AGCCGU | 0.507 ± 0.044 | 2.018 ± 0.017 | 0.3424 ± 0.0012 | 2.0145 ± 0.00041 |
| UGAUGA | 0.447 ± 0.11 | 1.865 ± 0.0033 | 0.525 ± 0.05 | 2.01 ± 0.047 |
| UGAUGU | 0.318 ± 0.071 | 1.93 ± 0.021 | 0.125 ± 0.22 | 2.02 ± 0.044 |
| UGAUGG | 0.038 ± 0.0089 | 1.625 ± 0.0082 | 0.583 ± 0.093 | 1.91 ± 0.038 |
| AGCCUG | 0.71 ± 0.23 | 2.01 ± 0.027 | 0.405 ± 0.12 | 2.05 ± 0.051 |
| AGCCUA | 0.465 ± 0.015 | 2.021 ± 0.012 | 0.612 ± 0.31 | 2.01 ± 0.021 |
| CGGAAU | 0.329 ± 0.016 | 1.97 ± 0.022 | 0.208 ± 0.2 | 2.02 ± 0.034 |
| AGAUUA | 0.568 ± 0.048 | 2.001 ± 0.018 | 0.535 ± 0.036 | 2.01 ± 0.037 |
| AGAUUC | 0.551 ± 0.08 | 2.05 ± 0.0077 | 0.54 ± 0.24 | 2.04 ± 0.042 |
| GGGCGG | 0.0567 ± 0.099 | 2.07 ± 0.027 | 0.485 ± 0.0056 | 2.06 ± 0.045 |
| AGGAAU | 0.338 ± 0.1 | 1.988 ± 0.016 | 0.0683 ± 0.36 | 2 ± 0.029 |
| AGGAAC | 0.484 ± 0.041 | 2 ± 0.012 | 0.434 ± 0.11 | 2.018 ± 0.02 |
| GGGUUG | 0.344 ± 0.19 | 2.037 ± 0.0021 | 0.56 ± 0.17 | 2.05 ± 0.049 |
| AGGUGU | 0.0941 ± 0.074 | 1.954 ± 0.015 | 0.266 ± 0.017 | 2.0099 ± 0.00041 |

| Variant | FACS-Seq fitted mean (log10) [1] | normalized RNA/DNA level without ligand (log10) [2] | FACS-Seq fitted mean (log10) [3] | normalized RNA/DNA level with ligand (log10) [4] |
| --- | --- | --- | --- | --- |
| AGGUGG | 0.777 ± 0.14 | 1.977 ± 0.0086 | 0.549 ± 0.26 | 2.05 ± 0.045 |
| AGGUGA | 0.616 ± 0.086 | 1.964 ± 0.0069 | 0.768 ± 0.25 | 2.03 ± 0.028 |
| CGUAAA | 0.203 ± 0.0032 | 1.956 ± 0.0076 | 0.334 ± 0.32 | 1.977 ± 0.017 |
| CGUAAU | 0.544 ± 0.015 | 1.93 ± 0.029 | 0.552 ± 0.14 | 1.96 ± 0.022 |
| UGGCAG | 0.237 ± 0.02 | 1.76 ± 0.059 | 0.61 ± 0.17 | 1.955 ± 0.013 |
| UGCAAU | 0.173 ± 0.069 | 1.841 ± 0.0071 | 0.456 ± 0.15 | 1.973 ± 0.016 |
| UGCAAA | 0.549 ± 0.013 | 1.957 ± 0.0057 | 0.532 ± 0.037 | 1.98 ± 0.034 |
| AGGUUA | 0.33 ± 0.013 | 1.981 ± 0.0028 | 0.384 ± 0.056 | 1.98 ± 0.04 |
| AGGUUU | 0.323 ± 0.15 | 2.003 ± 0.012 | 0.561 ± 0.075 | 2.0283 ± 0.00022 |
| AGGCAU | 0.532 ± 0.008 | 1.982 ± 0.0087 | 0.603 ± 0.48 | 2.02 ± 0.026 |
| AGGCAC | 0.308 ± 0.083 | 2.0376 ± 0.0006 | 0.298 ± 0.11 | 2.02 ± 0.018 |
| AGGCAA | 0.293 ± 0.14 | 1.994 ± 0.016 | 0.205 ± 0.1 | 1.994 ± 0.019 |
| CGGGUA | -0.402 ± 0.16 | 1.939 ± 0.018 | -0.606 ± 0.59 | 1.97 ± 0.054 |
| CGGUUA | 0.594 ± 0.087 | 1.9899 ± 0.00027 | 0.531 ± 0.12 | 2.02 ± 0.056 |
| GGCUUG | 0.434 ± 0.019 | 2.078 ± 0.012 | 0.292 ± 0.34 | 2.049 ± 0.018 |
| GGGUAG | 0.0738 ± 0.081 | 1.979 ± 0.0061 | 0.00328 ± 0.082 | 2.013 ± 0.015 |
| GGGUAC | 0.536 ± 0.17 | 1.952 ± 0.0069 | 0.245 ± 0.036 | 1.99 ± 0.073 |
| GGGUAA | 0.299 ± 0.036 | 1.997 ± 0.011 | 0.348 ± 0.28 | 2 ± 0.026 |
| GGGUAU | 0.149 ± 0.054 | 2.014 ± 0.015 | 0.284 ± 0.16 | 2.01 ± 0.033 |
| UGGAUG | 0.178 ± 0.037 | 1.68 ± 0.017 | 0.784 ± 0.046 | 1.958 ± 0.015 |
| UGGAUU | 0.509 ± 0.13 | 1.9762 ± 0.00085 | 0.582 ± 0.21 | 2.03 ± 0.023 |
| CGGCUC | 0.213 ± 0.046 | 2.048 ± 0.0069 | 0.269 ± 0.16 | 2.037 ± 0.014 |
| GGGAGU | 0.46 ± 0.087 | 1.975 ± 0.0027 | 0.487 ± 0.054 | 2 ± 0.038 |
